Data from patent US20170362330A1.

B1: YS12 (antibody, V domains shown)
VH: QVQLVESGGGVVQPGRSLRLSCAASGFTFSTYGMHWVRQAPGKGLEWLSFISYDGDEKYYADSVKGRFTISRDNSKNTLYLQMNSLRAEDTAVYWCAKASGYGMGILDYWGQGTLVTVSS
VL: SSELTQDPAVSVALGQTVRITCQGDSLRSYYVSWFQQKPGQAPVFVMYGQNNRPSGISERFSGSSSGNTASLIITGAQAEDEADYYCHSRDSSGTHLRVFGGGTKLTVL
B2: YS5-mcvcpab-MMAF (protein)
VH: QVQLVQSGGGVVQPGRSLRLACAASGLTVNNYAMHWVRQAPGKGLEWVAVISYDGNNKYYADSVKGRFTISRDNSKNTLYLQMNSLRAEDTAVYYCAKGGGYFDLWGRGTLVTVSS
VL: QSVLTQPPSVSGAPGQRVTISCTGSSSNIGAGYDVHWYQQLPGTAPKLLIYGNNNRPSGVPDRFSGSKSGTSASLAITGLQAEDEADYYCSSYTSGTWLFGGGTKLTVL
modifications: here or on the partner: monomethyl auristatin F (MMAF) conjugated via the MC-vc-PAB linker, on average about 3 drugs per antibody molecule; attachment residues not stated
B3: YS5 (antibody, V domains shown)
VH: B2 VH
VL: B2 VL

Key:
human CD46 (human) [1] = target: human CD46 (human) (UniProt P15529); test: FACS on Du-145 cells, 4 °C overnight, MFI curve fit
human CD46 (human), sequence (P15529 35-392): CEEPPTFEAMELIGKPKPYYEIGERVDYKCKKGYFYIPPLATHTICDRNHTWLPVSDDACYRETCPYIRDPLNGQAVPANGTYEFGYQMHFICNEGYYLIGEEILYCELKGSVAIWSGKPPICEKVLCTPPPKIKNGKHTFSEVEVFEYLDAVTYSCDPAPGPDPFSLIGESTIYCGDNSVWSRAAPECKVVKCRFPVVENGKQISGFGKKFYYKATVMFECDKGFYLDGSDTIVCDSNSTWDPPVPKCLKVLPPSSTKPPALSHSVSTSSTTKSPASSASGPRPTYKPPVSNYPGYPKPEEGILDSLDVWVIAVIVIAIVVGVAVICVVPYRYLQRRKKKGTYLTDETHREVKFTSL

[2] = target: human CD46 (human), P15529; test: cell-based or functional assay
human CD46 (human), P15529, sequence (P15529 35-392): as above

human CD46 (human) [3] = target: human CD46 (human) (UniProt P15529); test: FACS on CHO-huCD46 cells, 4 C overnight, MFI against antibody concentration
human CD46 (human) [4] = target: human CD46 (human) (UniProt P15529); test: FACS on CHO cells transfected with human CD46, 4 °C overnight, MFI curve fit

Binder | Kd (human CD46 (human) [1]) | EC50 of cell killing, LNCaP C4-2B cells with prior exposure to abiraterone (CD46 upregulated), 96 hours [2] | EC50 of cell killing, LNCaP C4-2B cells without prior exposure to abiraterone, 96 hours [2] | cytotoxic activity on H660 cells in vitro (Calcein AM viability, 7 days) [2] | fold drop of killing EC50 on H660 cells after enzalutamide treatment [2] | EC50 (read off the curve) (human CD46 (human) [3]) | Kd (human CD46 (human) [4])
B1 | 0.043 nM |  |  |  |  |  | 
B2 |  | 0.021 nM | 0.169 nM | < 1 nM | 4 to 5 fold |  | 
B3 | 2.19 nM |  |  |  |  | 1 nM | 0.867 nM
